This data set concerns the target human alpha thrombin (human, UniProt P00734;P00734 328-363;364-622). Description: electrochemical aptamer sensor (square-wave voltammetry); 1-500 nM thrombin; 100 Hz optimal; concentration-dependent peak current decrease; LOD 14.7 nM (not a Kd); Electrodes soaked in PBS before measurement (137 mM NaCl, 2.7 mM KCl, 10 mM Na2HPO4, 1.8 mM KH2PO4, pH 7.4); thrombin assay buffer and temperature not given in.

B1: PES-modified TBA (arPES-TBA) (structured_DNA)
DNA: TAAGTTCATCTCCCCGGTTGGTGTGGTTGGT
modifications: 5' SH-(CH2)6; 3' amine conjugated to arPES
Consider B1, for which the binding result was “binds”.

The values are drawn from PMC8914840.
